Laboratory results: the supplement of paper PMC10724198
± gives the standard deviation of the averaged measurements.

Tested on: Saccharomyces cerevisiae
Assay: protein stability index of tFT-peptide fusion (C-terminal peptide) (PSI (0-1 scale)); higher = more stable (slower turnover)
Settings: genetic background: wild type; temperature: 30 C
Experimental: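 Multiplexed protein stability (MPS) profiling in S. cerevisiae. Random 12-aa peptides (tFT-X12 library) are fused to the C-terminus of a sfGFP-mCherry tandem fluorescent timer, after mCherry and a GGGS linker. Cells are FACS-sorted into 8 mCherry/sfGFP bins and deep-sequenced. The protein stability index (PSI) is the read-weighted bin average, scaled from 0 (unstable) to 1 (stable). Only peptides with >10 reads are reported; cells were grown at 30 °C in SC-His with glucose.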
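Also: PSI is a weighted mean of sequencing reads over stability bins, variants kept only with over 10 reads, mCherry proximal and sfGFP distal, peptide attached via GGGS linker.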

Sequence | protein stability index
SPPPRATLPRPP | 0.689 ± 0.085
LPPSPPPPPRQS | 0.739 ± 0.013
LTHQENNIWVSR | 0.703 ± 0.057
GGREDGKRGRQK | 0.684 ± 0.055
HWLGCDESRGWV | 0.668 ± 0.037
GELLLVAGMHWL | 0.681 ± 0.023
SSVFPSSPAFLP | 0.691 ± 0.0099
ACGTFSDSMSQL | 0.691 ± 0.11
KKKKKQRGKKQK | 0.722 ± 0.014
MDIVIGSQTEAN | 0.7365 ± 0.0036
PSHTPNHTGYPD | 0.681 ± 0.02
RHKVVLQPRPQV | 0.649 ± 0.039
VEHQVNMGDGEM | 0.63525 ± 3.1e-05
SEKRIGAGKDSE | 0.688 ± 0.011
PSSLPSTPPSPP | 0.745 ± 0.019
LLPSSLPFPPLR | 0.72 ± 0.06
KIRRKIRIYKRK | 0.629 ± 0.1
LVSPPTPPPFPP | 0.702 ± 0.059
FRGGLLSLSAWV | 0.699 ± 0.02
LGFVADLFVWSV | 0.673 ± 0.069
PPPRPPHAPFSL | 0.702 ± 0.039
HDHRTLMRQPTR | 0.697 ± 0.037
FFKNAILFVSCE | 0.548 ± 0.049
RMGAEDTGCRRP | 0.657 ± 0.062
LDTVVNGAIPIL | 0.699 ± 0.051

Sequence | protein stability index
VWAWGDGGGAVV | 0.728 ± 0.051
RKKGKLESKKQK | 0.742 ± 0.12
DVRTLGTRVMGW | 0.6769 ± 0.0057
PPPPPVLPNRIP | 0.781 ± 0.04
GGGGGWVRWASG | 0.689 ± 0.064
VAVGIEGGWWGV | 0.78 ± 0.042
PPPSLPPLPSPS | 0.725 ± 0.027
AVVSRVPRLFRL | 0.724 ± 0.045
PFHPSPLPAPHF | 0.638 ± 0.036
ADSWACSWLLFR | 0.613 ± 0.065
PGGRPAAGALRV | 0.685 ± 0.065
PRPHRLPPRPFH | 0.6917 ± 0.0064
DQGMSDVYPDCW | 0.662 ± 0.011
SPRGPLVICHHP | 0.745 ± 0.075
IGSDFQLFLEGC | 0.668 ± 0.044
SGCGGKFGCALR | 0.74 ± 0.045
GRVSAVEFWFCF | 0.615 ± 0.04
SWTCSPLKSFHS | 0.734 ± 0.049
LLPPPPLPPLPL | 0.796 ± 0.1
MVRNCPYSLSFL | 0.734 ± 0.07
GKSESATLMVTV | 0.697 ± 0.18
KKKKKINRKKKK | 0.705 ± 0.14
GDVPHRIEGEFL | 0.788 ± 0.038
DSSPGSHPPHRG | 0.736 ± 0.053
KQRGSNYGCGYG | 0.615 ± 0.026

Sequence | protein stability index
LLSLALFACSIC | 0.63 ± 0.023
FRSENSWLLCSW | 0.786 ± 0.048
LWVGGVGRVRGV | 0.69144 ± 0.00047
LGFVRLLFPSFS | 0.758 ± 0.022
KQFKFPLRVIRA | 0.519 ± 0.024
VGGIVGGFCRGR | 0.701 ± 0.069
TPLLRRHSFSRN | 0.779 ± 0.021
FFWFFFLRFLFS | 0.568 ± 0.031
ARPPSLLLLASF | 0.6475 ± 0.0058
PPALRPNPPLPL | 0.7769 ± 0.0016
LCSTSLTPMRPT | 0.699 ± 0.021
YLLPSTPPPRIP | 0.6912 ± 0.0048
RVLCLCATSKSR | 0.672 ± 0.016
VFTSPPPLPSPP | 0.728 ± 0.029
LLFRPTPCLPPL | 0.686 ± 0.022
FPFGRMNVSGGC | 0.701 ± 0.026
IASASGAQAGAR | 0.636 ± 0.017
KSYKRICTKKSR | 0.782 ± 0.096
NVVFGCFFPVLT | 0.684 ± 0.04
RKIRKKRERKGE | 0.714 ± 0.2
PPLPRPPLPTSL | 0.649 ± 0.045
SAGYFYSWNSSD | 0.708 ± 0.028
KTKEETNENRNL | 0.719 ± 0.027
